Laboratory results from paper PMC10790359, “System for Self-excited Targeted Photodynamic Therapy Based on the Multimodal Protein DARP-NanoLuc-SOPP3” (Acta Naturae, 2023).

Biological target: T1, HER2 (human epidermal growth factor receptor type II) (human (endogenous in SKOV3.ip1), UniProt P04626 23-1255)
T1 construct: HER2, human epidermal growth factor receptor type II, on the surface of human ovarian adenocarcinoma SKOV3.ip1 / SKOV3.ip1-Kat cells; also called HER2 receptor; HER2 tumor marker; source: endogenous, on SKOV3.ip1 and SKOV3.ip1-Kat cells (HER2 overexpression)
Experiment: flow cytometry on cells; cells incubated with 300 nM DARP-NanoLuc-SOPP3-AF488 conjugate in complete growth medium for 10 min at 37°C, washed thrice with phosphate-buffered saline; HER2-positive SKOV3.ip1-Kat cells; control: unlabelled cells
Conditions: one partner purified

B1: DARP-NanoLuc-SOPP3 (designed binder)
chain: MDLGKKLLEAARAGQDDEVRILMANGADVNAHDFYGITPLHLAANFGHLEIVEVLLKHGADVNAFDYDNTPLHLAADAGHLEIVEVLLKYGADVNASDRDGHTPLHLAAREGHLEIVEVLLKNGADVNAQDKFGKTAFDISIDNGNEDLAEILQEFPKPSTPPGSSGGAMVFTLEDFVGDWRQTAGYNLDQVLEQGGVSSLFQNLGVSVTPIQRIVLSGENGLKIDIHVIIPYEGLSGDQMGQIEKIFKVVYPVDDHHFKVILHYGTLVIDGVTPNMIDYFGRPYEGIAVFDGKKITVTGTLWNGNKIIDERLINPDGSLLFRVTINGVTGWRLCERILAGGGGSGSEKSFVITDPRLPDNPIIFASDGFLELTEYSREEILGRNGRFLQGPETDQATVQKIRDAIRDQREITVQLINYTKSGKKFLNLLNLQPIRDQKGELQAFIGVQVDGKLAAALE
modifications: conjugated with N-hydroxysuccinimide esters of dyes (AF488 or Cy5.5) for flow cytometry and confocal microscopy; legends and results call the green conjugate FITC; labelled residues not stated
notes: DARPin_9-29, HER2-specific targeting module; NanoLuc luciferase (engineered), amplified from plasmid pNL1.1.CMV (Promega); SOPP3 phototoxic flavoprotein (a miniSOG analogue, engineered), amplified from pET24-SOPP3; vector-derived residues between SOPP3 and the C-terminal HHHHHH of the printed chain; cytotoxicity assays used the protein without a dye; also called DARPin-NanoLuc-SOPP3; …
fold shift in the median fluorescence of conjugate-treated cells compared to the control: ~100 fold
